Results: patent US11827911B2, “Chimeric bacteriophage lysin with activity against Staphylococci bacteria” (priority 2008, dated 2023)

B1: AD 126: S. epidermidis autolysin amidase domain upstream of phiNM3 CWT domain (protein)
chain: MVSSQKTSSLPKYTPKVNSSINNYIRKKNMKAPRIEEDYTSYFPKYGYRNGVGRPEGIVVHDTANDNSTIDGEIAFMKRNYTNAFVHAFVDGNRIIETAPTDYLSWGAGPYGNQRFINVEIVHTHDYDSFARSMNNYADYAATQLQYYNLKPDSAENDGRGTVWTHAAISNFLGGTDHADPHQYLRSHNYSYAELYDLIYEKYLIKTKQVAPWGTTSTKPSQPSKPSGGTNNKLTVSANRGVAQIKPTNNGLYTTVYDSKGHKTDQVQKTLSVTKTATLGNNKFYLVEDYNSGKKYGWVKQGDVVYNTAKAPVKVNQTYNVKAGSTLYTVPWGTPKQVASKVSGTGNQTFKATKQQQIDKATYLYGTVNGKSGWISKYYLTTASKPSNPTKPSTNNQLTVTNNSGVAQINAKNSGLYTTVYDTKGKTTNQIQRTLSVTKAATLGDKKFYLVGDYNTGTNYGWVKQDEVIYNTAKSPVKINQTYNVKPGVKLHTVPWGTYNQVAGTVSGKGDQTFKATKQQQIDKATYLYGTVNGKSGWISKYYLLQGLMNKITNKVKPPAQKAVGKSASKITVGSKAPYNLKWSKGAYFNAKIDGLGATSATRYGDNRTNYRFDVGQAVYAPGTLIYVFEIIDGWCRIYWNNHNEWIWHERLIVKEVF
modifications: Chimeric of Staphylococcus epidermidis autolysin amidase domain and Staphylococcus aureus phage pniNM3 CWT domain
B2: AD 105: PlyB with its C-terminal CWT domain replaced by the putative C-terminal domain of S. aureus phage Twort lysin (protein)
chain: MGYIVDMSKWNGSPDWDTAKGQLDLVIARVQDGSNYVDPVYKDYVAAMKARNIPFGSYAFCRFVSVEDAKVEARDFWNRGDKDSLFWVADVEVTTMSDMRAGTQAFIDELYRLGAKKVGLYVGHHKYEEFGAAQIKCDFTWIPRYGAKPAYPCDLWQYDEYGQVPGIGKCDLNRLNGDKSLDWFTGKGEEAVQWNVNNYGTYYKSESATFKCTARQGIVTRYTGPFTTCPQAGVLYYGQSVTYDTVCKQDGYVWISWTTNGGQDVWMPVRTWDKNTDIMGQLWGDIY
modifications: Cimeric of Bacillus-specific phage lysin PlyB catalytic domain and Staphylococcus aureus bacteriophage Twort domain
B3: AD 107: lysostaphin CWT domain downstream of PlyB-catalytic domain (protein)
chain: MGYIVDMSKWNGSPDWDTAKGQLDLVIARVQDGSNYVDPVYKDYVAAMKARNIPFGSYAFCRFVSVEDAKVEARDFWNRGDKDSLFWVADVEVTTMSDMRAGTQAFIDELYRLGAKKVGLYVGHHKYEEFGAAQIKCDFTWIPRYGAKPAYPCDLWQYDEYGQVPGIGKCDLNRLNGDKSLDWFTGKGEEAVQLQTPNTGWKTNKYGTLYKSESASFTPNTDIITRTTGPFRSMPQSGVLKAGQTIHYDEVMKQDGHVWVGYTGNSGQRIYLPVRTWNKSTNTLGVLWGTIK
modifications: Chimeric of Bacillus-specific phage lysin PlyB catalytic domain and Staphylococcus simulans metalloendopeptidase Lysostaphin CWT domain
B4: AD 112: S. epidermidis autolysin amidase domain upstream of the lysostaphin CWT domain (protein)
chain: MVSSQKTSSLPKYTPKVNSSINNYIRKKNMKAPRIEEDYTSYFPKYGYRNGVGRPEGIVVHDTANDNSTIDGEIAFMKRNYTNAFVHAFVDGNRIIETAPTDYLSWGAGPYGNQRFINVEIVHTHDYDSFARSMNNYADYAATQLQYYNLKPDSAENDGRGTVWTHAAISNFLGGTDHADPHQYLRSHNYSYAELYDLIYEKYLIKTKQVAPWGTTSTKPSQPSKPSGGTNNKLTVSANRGVAQIKPTNNGLYTTVYDSKGHKTDQVQKTLSVTKTATLGNNKFYLVEDYNSGKKYGWVKQGDVVYNTAKAPVKVNQTYNVKAGSTLYTVPWGTPKQVASKVSGTGNQTFKATKQQQIDKATYLYGTVNGKSGWISKYYLTTASKPSNPTKPSTNNQLTVAGQTIHYDEVMKQDGHTNNSGVAQINAKNSGLYTTVYDTKGKTTNQIQRTLSVTKAATLGDKKFYLVGDYNTGTNYGWVKQDEVIYNTAKSPVKINQTYNVKPGVKLHTVPWGTYNQVAGTVSGKGDQTFKATKQQQIDKATYLYGTVNGKSGWISKYYLLQTPNTGWKTNKYGTLYKSESASFTPNTDIITRTTGPFRSMPQSGVLKVWVGYTGNSGQRIYLPVRTWNKSTNTLGVLWGTIK
modifications: Chimeric of Staphylococcus epidermidis autolysin amidase domain and Staphylococcus simulans metalloendopeptidase Lysostaphin CWT domain
B5: AD 119: Twort lysin endopeptidase domain upstream of the lysostaphin CWT domain (protein)
chain: METLKQAESYIKSKVNTGTDFDGLYGYQCMDLAVDYIYHVTDGKIRMWGNAKDAINNSFGGTATVYKNYPAFRPKYGDVVVWTTGNFATYGHIAIVTNPDPYGDLQYVTVLEQNWNGNGIYKTELATIRTHDYTGITHFIRPNFATESSVKKKDTKKKPKPSNRDGLNKDKIVYDRTNINYNMVLQTPNTGWKTNKYGTLYKSESASFTPNTDIITRTTGPFRSMPQSGVLKAGQTIHYDEVMKQDGHVWVGYTGNSGQRIYLPVRTWNKSTNTLGVLWGTIK
modifications: Chimeric of Staphylococcus aureus bacteriophage Twort domain and Staphylococcus simulans metalloendopeptidase Lysostaphin CWT domain

Legend:
MRSA strain COL = test: Checkerboard broth-microdilution assay; assay type: cell-based, Staphylococcus aureus; conditions: Staphylococcus aureus, read-out: MIC
Description: (§1) We used the checkerboard broth-microdilution assay to test the interaction of ClyS with vancomycin and with oxacillin. […] Isobolograms for ClyS with vancomycin and ClyS with oxacillin was plotted by transcribing the enzyme concentrations along the inhibitory line on the microtiter plate in an x/y plot.

MRSA strain MW2 = test: Systemic MRSA infection model, survival; assay type: in vivo, FVB/NJ mice; conditions: 100 μg/mouse of oxacillin alone, 10 days
Protocol: In order to assess whether ClyS treatment could prevent death resulting from systemic MRSA infections, 4 week old FVB/NJ mice were intraperitoneally injected with ˜5×10^5 CFU of the community-acquired MRSA strain MW2 in 5% mucin. Preliminary experiments determined that 5×10^5 CFU was 10× the LD100 dose for a twenty-four hour period. Furthermore, within 3 hours of IP injection the MRSA infection was systemic. i.e., MRSA were recovered in high numbers from heart, liver, spleen, and kidney (data not shown). Treatment occurred three hours post-infection, with either 20 mM phosphate buffer or 1 mg of ClyS in 20 mM phosphate buffer injected IP (intraperitoneally). Mice were then monitored for survival over ten days. The results from three independent experiments were combined (ClyS treatment, n=16; buffer treatment, n=14) and the mice survival data plotted with a Kaplan Meier Survival curve (FIG. 12), Within twenty-four hours all of the control mice died of bacterial sepsis, while only 2/16 of ClyS treated mice died at forty-eight hours, and the remaining mice (14/16, 88%) survived over the course of the experiments (FIG. 12).
To determine if this effect could be seen in our systemic MRSA infection model, FVB/NJ mice were intraperitoneally injected with ˜5×10^5 CFUs of the MRSA strain MW2 as above. Three hours post infection mice were treated in parallel, with a lower IP dose of 130 μg/mouse of ClyS combined with different concentrations of oxacillin (10-100 μg/mouse) or buffer alone controls. Preliminary experiments determined that an ED30 dose of ClyS (130 μg/mouse) had minimal efficacy to evaluate the effect of combinatorial treatment with oxacillin (data not shown). Mice were monitored for survival for 10 days and the results of 5 independent experiments were combined and plotted in a Kaplan Meier Survival curve (FIG. 14).

VISA strain Mu50 = test: Checkerboard broth-microdilution assay; assay type: cell-based, Staphylococcus aureus; conditions: Staphylococcus aureus, VISA
Description: as §1

staphylococcal strains = conditions: by altering peptide cross-bridges; cited from earlier work
S. aureus = test: Lytic assays of chimeric lysins against S. aureus; assay type: cell-based, Staphylococcus aureus; conditions: for lytic/killing activity against S. aureus: qualitative
Description: For this, the endopeptidase domain in Twort lysin (14) was used to construct chimera AD 119 (SEQ ID NO:3). […] To overcome low expression of AD 127 construct, the entire chimera gene was cloned into expression vector pJML6 to generate pAD 138.

[1] = Solubility of expressed lysins and chimeras
Protocol: In another embodiment, the lysin is a chimeric protein that comprises an endopeptidase domain of the S. aureus Twort lysin upstream of the phiNM3 CWT domain (SEQ ID NO:1). The chimeric polypeptide is preferably sufficiently soluble in phosphate buffered saline (PBS). Preferred levels of solubility in PBS for the chimeric lysins is at least about 1 mg/ml and more preferably at least about 3 mg/mL. in PBS. […] One example of such a lysin is provided in SEQ ID NO:2 (AD127), shown in FIG. 5A and consisting of the Twort lysin endopeptidase domain attached to the phiNM3 CWT domain (SEQ ID NO:1). The isolated polypeptide of SEQ ID NO:2 (AD 127) was constructed by engineering S. epidermidis autolysin amidase and Twort lysin endopeptidase domains upstream of phiNM3 CWT domain, respectively.
Traditionally, Bacillus-specific lysins are expressed at high levels and are soluble in E. coli. Therefore, our first attempt was to engineer a 16-amino acid peptide (4) that is conserved in several S. aureus-specific lysins (Lu J Z, Fujiwara T, Komatsuzawa H, Sugai M, Sakon J. 2006. Cell wall-targeting domain of glycylglycine endopeptidase distinguishes among peptidoglycan cross-bridges. (Lue et al. (2006) J. Biol. Chem. 281(1):549-58) The catalytic domain of the Bacillus-specific lysin PlyB was used to generate chimera AD 103 (FIG. 4) (SEQ ID NO: 13). The chimeras were tested for expression, solubility and activity. Then the entire C-terminal CWT domain of PlyB (6) was replaced by the putative C-terminal domain of S. aureus phage Twort lysin (8) to obtain AD 105 (SEQ ID NO: 14). […] Since the lysostaphin catalytic domain […] (10) in AD 112 was of bacterial origin, we attempted to engineer a phage-derived catalytic domain upstream of the lysostaphin CWT. For this, the endopeptidase domain in Twort lysin (14) was used to construct chimera AD 119 (SEQ ID NO:3).

Molecule	lytic/killing activity against S. aureus (S. aureus)	solubility of the expressed protein [1]	other results
Cc1onc(-c2ccccc2)c1C(=O)N[C@@H]1C(=O)N2[C@@H]1SC(C)(C)[C@@H]2C(=O)O [oxacillin, reference compound]	–	–	MIC (MRSA strain COL): 32 µg/mL; survival (MRSA strain MW2): 35%
CN[C@H](CC(C)C)C(=O)N[C@H]1C(=O)N[C@@H](CC(N)=O)C(=O)N[C@H]2C(=O)N[C@H]3C(=O)N[C@H](C(=O)N[C@H](C(=O)O)c4cc(O)cc(O)c4-c4cc3ccc4O)[C@H](O)c3ccc(c(Cl)c3)Oc3cc2cc(c3O[C@@H]2O[C@H](CO)[C@@H](O)[C@H](O)[C@H]2O[C@H]2C[C@](C)(N)[C@H](O)[C@H](C)O2)Oc2ccc(cc2Cl)[C@H]1O [vancomycin, reference compound]	–	–	MIC (VISA strain Mu50): 8 µg/mL
lysostaphin: staphylolytic enzyme produced by Staphylococcus simulans	–	–	frequency of developing resistance (staphylococcal strains): 10^−6
B1	no expression or activity	–	–
B2	not active	–	–
B3	no activity	poor	–
B4	no lytic activity	very soluble	effect on S. aureus cells when exposed (S. aureus): clumped
B5	did not show significant activity	soluble	–
